How the values were obtained:
[1] = biological target: T1, MIS12C^NSL1-258 (MIS12 complex with NSL1 residues 1–258) (human, UniProt Q9H081 1-205; Q6P1K2 1-205; Q9H410 1-356; Q96IY1 1-258); assay: ITC
T1 sequence (looked up) 1: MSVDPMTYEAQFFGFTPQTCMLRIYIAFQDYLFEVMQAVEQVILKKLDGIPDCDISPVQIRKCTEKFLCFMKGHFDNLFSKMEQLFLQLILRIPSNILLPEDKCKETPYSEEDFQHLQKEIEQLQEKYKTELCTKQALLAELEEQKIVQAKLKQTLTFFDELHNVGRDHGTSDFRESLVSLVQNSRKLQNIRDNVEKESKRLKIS
T1 sequence (looked up) 2: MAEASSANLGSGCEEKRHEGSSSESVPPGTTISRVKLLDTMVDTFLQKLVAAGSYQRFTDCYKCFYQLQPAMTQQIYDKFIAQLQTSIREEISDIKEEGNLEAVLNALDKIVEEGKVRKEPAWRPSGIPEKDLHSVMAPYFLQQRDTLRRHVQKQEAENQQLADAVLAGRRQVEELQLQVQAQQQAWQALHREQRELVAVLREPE
T1 sequence (looked up) 3: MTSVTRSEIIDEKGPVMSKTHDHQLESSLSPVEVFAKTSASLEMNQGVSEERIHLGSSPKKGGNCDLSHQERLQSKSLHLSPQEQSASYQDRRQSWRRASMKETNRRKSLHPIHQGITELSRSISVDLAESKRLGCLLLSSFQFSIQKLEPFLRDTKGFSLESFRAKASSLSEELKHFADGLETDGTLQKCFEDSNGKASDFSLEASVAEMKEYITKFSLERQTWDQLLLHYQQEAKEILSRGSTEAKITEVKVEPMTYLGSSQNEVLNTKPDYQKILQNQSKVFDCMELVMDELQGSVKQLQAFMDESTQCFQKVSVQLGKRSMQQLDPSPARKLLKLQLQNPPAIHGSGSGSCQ
T1 sequence (looked up) 4: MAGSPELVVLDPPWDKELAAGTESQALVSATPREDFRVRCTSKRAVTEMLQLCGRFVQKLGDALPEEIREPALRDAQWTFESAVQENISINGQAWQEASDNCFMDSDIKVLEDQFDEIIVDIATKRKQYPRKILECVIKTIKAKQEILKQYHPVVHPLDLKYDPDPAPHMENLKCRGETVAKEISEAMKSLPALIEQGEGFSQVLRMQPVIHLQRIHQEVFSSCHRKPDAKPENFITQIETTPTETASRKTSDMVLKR

[2] = biological target: T1, MIS12C^NSL1-258 (MIS12 complex with …); assay: AUC
[3] = biological target: T2, SPC25^70–224 (human, UniProt Q9HBM1 70-224); assay: AUC
T2 sequence (looked up): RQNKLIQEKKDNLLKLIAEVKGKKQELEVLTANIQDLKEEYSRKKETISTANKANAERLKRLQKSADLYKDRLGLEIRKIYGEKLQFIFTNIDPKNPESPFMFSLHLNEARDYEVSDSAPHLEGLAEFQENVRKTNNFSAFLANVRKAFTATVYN

[4] = biological target: T3, DSN1 (subunit of MIS12C, hexahistidine tag) (human, UniProt Q9H410 1-356); assay: co-expression and co-purification
T3 sequence (looked up): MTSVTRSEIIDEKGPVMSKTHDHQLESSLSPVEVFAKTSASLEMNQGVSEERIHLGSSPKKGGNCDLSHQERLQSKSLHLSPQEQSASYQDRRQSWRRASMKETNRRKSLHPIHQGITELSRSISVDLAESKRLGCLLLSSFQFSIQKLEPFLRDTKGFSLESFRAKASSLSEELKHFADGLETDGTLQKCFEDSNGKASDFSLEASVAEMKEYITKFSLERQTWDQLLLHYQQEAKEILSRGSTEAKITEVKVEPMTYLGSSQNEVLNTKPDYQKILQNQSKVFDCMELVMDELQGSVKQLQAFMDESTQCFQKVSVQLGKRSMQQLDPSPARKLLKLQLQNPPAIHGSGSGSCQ

[5] = biological target: T4, MIS12 complex (full-length MIS12C) (human, UniProt Q9H081 1-205; Q6P1K2 1-205; Q9H410 1-356; Q96IY1 1-281); assay: pull-down
T4 sequence (looked up) 1: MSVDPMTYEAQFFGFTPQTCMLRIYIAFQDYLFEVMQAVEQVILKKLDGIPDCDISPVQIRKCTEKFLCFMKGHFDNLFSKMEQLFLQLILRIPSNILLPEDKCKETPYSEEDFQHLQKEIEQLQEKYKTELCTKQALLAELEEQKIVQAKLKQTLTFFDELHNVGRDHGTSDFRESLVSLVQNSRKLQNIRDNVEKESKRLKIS
T4 sequence (looked up) 2: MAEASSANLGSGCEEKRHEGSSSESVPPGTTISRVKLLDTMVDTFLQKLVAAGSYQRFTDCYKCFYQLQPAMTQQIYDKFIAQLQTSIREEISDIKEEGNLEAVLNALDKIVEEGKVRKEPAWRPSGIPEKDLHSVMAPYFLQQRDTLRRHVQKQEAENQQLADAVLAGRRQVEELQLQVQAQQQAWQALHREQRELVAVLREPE
T4 sequence (looked up) 3: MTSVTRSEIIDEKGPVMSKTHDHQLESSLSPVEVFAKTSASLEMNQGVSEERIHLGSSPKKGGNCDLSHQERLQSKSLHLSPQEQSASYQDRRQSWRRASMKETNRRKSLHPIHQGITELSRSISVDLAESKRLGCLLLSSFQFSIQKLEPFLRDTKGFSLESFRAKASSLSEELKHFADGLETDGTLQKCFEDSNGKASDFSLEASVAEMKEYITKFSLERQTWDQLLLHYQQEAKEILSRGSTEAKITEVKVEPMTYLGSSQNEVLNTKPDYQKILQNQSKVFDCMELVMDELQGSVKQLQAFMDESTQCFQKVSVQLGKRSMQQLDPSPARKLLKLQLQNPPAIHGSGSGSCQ
T4 sequence (looked up) 4: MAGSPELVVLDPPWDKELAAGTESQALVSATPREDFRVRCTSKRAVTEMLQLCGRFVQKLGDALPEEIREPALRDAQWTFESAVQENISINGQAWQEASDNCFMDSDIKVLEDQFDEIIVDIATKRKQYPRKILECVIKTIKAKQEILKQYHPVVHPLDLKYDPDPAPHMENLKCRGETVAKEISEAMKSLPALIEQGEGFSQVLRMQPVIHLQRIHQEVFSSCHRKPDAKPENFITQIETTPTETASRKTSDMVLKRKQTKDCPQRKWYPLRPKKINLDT

B1: SPC24^57–197–SPC25^70–224 (complex, human)
chain 1: TMEKEVAQSLLNAKEQVHQGGVELQQLEAGLQEAGEEDTRLKASLLQLTRELEELKEIEADLERQEKEVDEDTTVTIPSAVYVAQLYHQVSKIEWDYECEPGMVKGIHHGPSVAQPIHLDSTQLSRKFISDYLWSLVDTEW
chain 2: RQNKLIQEKKDNLLKLIAEVKGKKQELEVLTANIQDLKEEYSRKKETISTANKANAERLKRLQKSADLYKDRLGLEIRKIYGEKLQFIFTNIDPKNPESPFMFSLHLNEARDYEVSDSAPHLEGLAEFQENVRKTNNFSAFLANVRKAFTATVYN
Kd [1]: ~10 nM | stoichiometry N [2]: 1

B2: SPC24^57–197 (domain or fragment, human, UniProt Q8NBT2 57-197, looked up)
chain: TMEKEVAQSLLNAKEQVHQGGVELQQLEAGLQEAGEEDTRLKASLLQLTRELEELKEIEADLERQEKEVDEDTTVTIPSAVYVAQLYHQVSKIEWDYECEPGMVKGIHHGPSVAQPIHLDSTQLSRKFISDYLWSLVDTEW
stoichiometry N [3]: 1

B3: MIS12 (subunit of MIS12C) (natural protein, human, UniProt Q9H081 1-205, looked up)
chain: MSVDPMTYEAQFFGFTPQTCMLRIYIAFQDYLFEVMQAVEQVILKKLDGIPDCDISPVQIRKCTEKFLCFMKGHFDNLFSKMEQLFLQLILRIPSNILLPEDKCKETPYSEEDFQHLQKEIEQLQEKYKTELCTKQALLAELEEQKIVQAKLKQTLTFFDELHNVGRDHGTSDFRESLVSLVQNSRKLQNIRDNVEKESKRLKIS
binding result [4]: binds

B4: GST-KNL1^1904–2316 (domain or fragment, human, UniProt Q8NG31-2 1904-2316, looked up)
chain: EDLMLSQYVYRPKIQIYREDCEARRQKIEELKLSASNQDKLLVDINKNLWEKMRHCSDKELKAFGIYLNKIKSCFTKMTKVFTHQGKVALYGKLVQSAQNEREKLQIKIDEMDKILKKIDNCLTEMETETKNLEDEEKNNPVEEWDSEMRAAEKELEQLKTEEEELQRNLLELEVQKEQTLAQIDFMQKQRNRTEELLDQLSLSEWDVVEWSDDQAVFTFVYDTIQLTITFEESVVGFPFLDKRYRKIVDVNFQSLLDEDQAPPSSLLVHKLIFQYVEEKESWKKTCTTQHQLPKMLEEFSLVVHHCRLLGEEIEYLKRWGPNYNLMNIDINNNELRLLFSSSAAFAKFEITLFLSAYYPSVPLPSTIQNHVGNTSQDDIATILSKVPLENNYLKNVVKQIYQDLFQDCHFYH
binding result [5]: binds

Reference: publication PMC2935574 (The Journal of Cell Biology, 2010)
